# Residue numbers refer to the chain shown, from its start. Names may count otherwise. Marks after values point to notes of the source that are not given here.
# T1: PYR1 (Arabidopsis thaliana, UniProt O49686)
# T1 construct: expressed in transfected cells; host or cells: S. cerevisiae strain Y190
# T1 sequence (O49686 1-191): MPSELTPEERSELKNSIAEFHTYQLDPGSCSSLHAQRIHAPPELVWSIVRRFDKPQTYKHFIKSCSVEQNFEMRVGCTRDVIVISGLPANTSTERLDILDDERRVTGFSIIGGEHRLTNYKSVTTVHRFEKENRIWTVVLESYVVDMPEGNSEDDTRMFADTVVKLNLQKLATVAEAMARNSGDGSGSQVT
# B1: G246V: HAB1 mutant (protein, UniProt Q9CAJ0 23-511, looked up, variant G246V)
# Protein phosphatase 2C 16: SPVEITQLKNVTDAADLLSDSENQSFCNGGTECTMEDVSELEEVGEQDLLKTLSDTRSGSSNVFDEDDVLSVVEDNSAVISEGLLVVDAGSELSLSNTAMEIDNGRVLATAIIVGESSIEQVPTAEVLIAGVNQDTNTSEVVIRLPDENSNHLVKGRSVYELDCIPLWGTVSIQGNRSEMEDAFAVSPHFLKLPIKMLMGDHEGMSPSLTHLTGHFFGVYDGHVGHKVADYCRDRLHFALAEEIERIKDELCKRNTGEGRQVQWDKVFTSCFLTVDGEIEGKIGRAVVGSSDKVLEAVASETVGSTAVVALVCSSHIVVSNCGDSRAVLFRGKEAMPLSVDHKPDREDEYARIENAGGKVIQWQGARVFGVLAMSRSIGDRYLKPYVIPEPEVTFMPRSREDECLILASDGLWDVMNNQEVCEIARRRILMWHKKNGAPPLAERGKGIDPACQAAADYLSMLALQKGSKDNISIIVIDLKAQRKFKTRT
# B2: G246K: HAB1 mutant (protein, UniProt Q9CAJ0 23-511, looked up, variant G246K)
# Protein phosphatase 2C 16: B1 Protein phosphatase 2C 16 with V224K
# B3: G247T: HAB1 mutant (protein, UniProt Q9CAJ0 23-511, looked up, variant G247T)
# Protein phosphatase 2C 16: B1 Protein phosphatase 2C 16 with V224G, G225T
# B4: G246E: HAB1 mutant (protein, UniProt Q9CAJ0 23-511, looked up, variant G246E)
# Protein phosphatase 2C 16: B1 Protein phosphatase 2C 16 with V224E
# B5: G247F: HAB1 mutant (protein, UniProt Q9CAJ0 23-511, looked up, variant G247F)
# Protein phosphatase 2C 16: B1 Protein phosphatase 2C 16 with V224G, G225F
# B6: G246C: HAB1 mutant (protein, UniProt Q9CAJ0 23-511, looked up, variant G246C)
# Protein phosphatase 2C 16: B1 Protein phosphatase 2C 16 with V224C
# B7: G246F: HAB1 mutant (protein, UniProt Q9CAJ0 23-511, looked up, variant G246F)
# Protein phosphatase 2C 16: B1 Protein phosphatase 2C 16 with V224F
# B8: G247R: HAB1 mutant (protein, UniProt Q9CAJ0 23-511, looked up, variant G247R)
# Protein phosphatase 2C 16: B1 Protein phosphatase 2C 16 with V224G, G225R
# B9: G247M: HAB1 mutant (protein, UniProt Q9CAJ0 23-511, looked up, variant G247M)
# Protein phosphatase 2C 16: B1 Protein phosphatase 2C 16 with V224G, G225M
# B10: G246I: HAB1 mutant (protein, UniProt Q9CAJ0 23-511, looked up, variant G246I)
# Protein phosphatase 2C 16: B1 Protein phosphatase 2C 16 with V224I
# B11: G247Y: HAB1 mutant (protein, UniProt Q9CAJ0 23-511, looked up, variant G247Y)
# Protein phosphatase 2C 16: B1 Protein phosphatase 2C 16 with V224G, G225Y
# B12: G247K: HAB1 mutant (protein, UniProt Q9CAJ0 23-511, looked up, variant G247K)
# Protein phosphatase 2C 16: B1 Protein phosphatase 2C 16 with V224G, G225K
# B13: G246H: HAB1 mutant (protein, UniProt Q9CAJ0 23-511, looked up, variant G246H)
# Protein phosphatase 2C 16: B1 Protein phosphatase 2C 16 with V224H
# B14: G247I: HAB1 mutant (protein, UniProt Q9CAJ0 23-511, looked up, variant G247I)
# Protein phosphatase 2C 16: B1 Protein phosphatase 2C 16 with V224G, G225I
# B15: G247P: HAB1 mutant (protein, UniProt Q9CAJ0 23-511, looked up, variant G247P)
# Protein phosphatase 2C 16: B1 Protein phosphatase 2C 16 with V224G, G225P
# B16: G247V: HAB1 mutant (protein, UniProt Q9CAJ0 23-511, looked up, variant G247V)
# Protein phosphatase 2C 16: B1 Protein phosphatase 2C 16 with V224G, G225V
# B17: G247A: HAB1 mutant (protein, UniProt Q9CAJ0 23-511, looked up, variant G247A)
# Protein phosphatase 2C 16: B1 Protein phosphatase 2C 16 with V224G, G225A
# B18: G247W: HAB1 mutant (protein, UniProt Q9CAJ0 23-511, looked up, variant G247W)
# Protein phosphatase 2C 16: B1 Protein phosphatase 2C 16 with V224G, G225W
# B19: G246D: HAB1 mutant (protein, UniProt Q9CAJ0 23-511, looked up, variant G246D)
# Protein phosphatase 2C 16: B1 Protein phosphatase 2C 16 with V224D
# B20: G246Y: HAB1 mutant (protein, UniProt Q9CAJ0 23-511, looked up, variant G246Y)
# Protein phosphatase 2C 16: B1 Protein phosphatase 2C 16 with V224Y
# B21: G246W: HAB1 mutant (protein, UniProt Q9CAJ0 23-511, looked up, variant G246W)
# Protein phosphatase 2C 16: B1 Protein phosphatase 2C 16 with V224W
# B22: G247Q: HAB1 mutant (protein, UniProt Q9CAJ0 23-511, looked up, variant G247Q)
# Protein phosphatase 2C 16: B1 Protein phosphatase 2C 16 with V224G, G225Q
# B23: G247E: HAB1 mutant (protein, UniProt Q9CAJ0 23-511, looked up, variant G247E)
# Protein phosphatase 2C 16: B1 Protein phosphatase 2C 16 with V224G, G225E
# B24: PYR1^Y58H;K59R;V81I;F108A;S122G;M158V;F159V;A160V;T162D: PYR1 mutant with 9 mutations (protein, listed as Arabidopsis thaliana)
# chain: T1 sequence (O49686 1-191) with Y58H, K59R, V81I, F108A, S122G, M158V, F159V, A160V, T162D
# B25: PYR1^Y58H;K59R;V81I;F108A;S122G;M158I;F159V;A160C;T162D: PYR1 mutant with 9 mutations (protein, listed as Arabidopsis thaliana)
# chain: T1 sequence (O49686 1-191) with Y58H, K59R, V81I, F108A, S122G, M158I, F159V, A160C, T162D
# Molecular target: T1, PYR1
# Assay: Yeast two hybrid of pACT-HAB1 site saturation mutants with pBD-PYR1 on 10 μM ABA, β-galactosidase staining
# Format: cell-based
# Set-up: key: x: Mutations in HAB1 that disrupt HAB1 interaction with PYR1
# Settings: S. cerevisiae Y190, 10 μM ABA; dead = lack of detectable staining in comparison to wild type control
# Outline: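 HAB1 (lacking three N-terminal residues) site-saturation mutants in pACT were co-transformed with pBD-PYR1 into S. cerevisiae Y190 and spotted on SD (-Leu,-Trp) with 10 μM ABA. After 2 days at 30 °C, chloroform-lysed colonies were stained for β-galactosidase; "dead" means no detectable staining versus wild-type pair.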
row,Mutations in HAB1 that disrupt HAB1 interaction with PYR1,Molecule
1,x,B1
2,x,B2
3,x,B3
4,x,B4
5,x,B5
6,x,B6
7,x,B7
8,x,B8
9,x,B9
10,x,B10
11,x,B11
12,x,B12
13,x,B13
14,x,B14
15,x,B15
16,x,B16
17,x,B17
18,x,B18
19,x,B19
20,x,B20
21,x,B21
22,x,B22
23,x,B23

# Test system: HAB1^!-2
# Assay: Yeast two hybrid, mandipropamid-promoted interaction of PYR1 variants with HAB1^!-2
# Format: cell-based
# Settings: FIG. 3, FIG. 4
# Text: To engineer orthogonal mandipropamid responsiveness, we introduced the PYR1^! mutation into the PYR1^MANDI receptor to create a septuple mutant called PYR1^!-MANDI (PYR1^Y58H;K59R;V81I;F108A;S122G;F159L;T162D). This mutant interacts with HAB1^! and HAB^!-2 in response to low μM mandipropamid in yeast two-hybrid assays, but is ˜100-fold less sensitive than the PYR1^MANDI/HAB1 interaction, which responds to concentrations in the low nM range (FIG. 3).
# To improve sensitivity, we mutagenized ligand contacting and interface residues in PYR1^!-MANDI using NNK primers, pooled the mutant libraries, and used the mutagenized receptors in selection experiments using to identify enhancer mutations. The NNK mutagenesis screen targeted the following residues: P55, H60, F61, I62, K63, V83, S85, G86, L87, P88, A89, S92, E94, I110, H115, R116, L117, Y120, E141, P148, G150, N151, D154, D155, T156, M158, A160, V163, V164, L166, N167, and K170. […] Since M158 and A160 flank the […] mutation present in PYR1^MANDI, we inferred that the closely located orthogonalizing T162D mutation in PYR1^!-MANDI may have reduced mandipropamid sensitivity by altering the local structure of the C-terminal α3-helix, which participates in ligand-induced conformational changes needed for PP2C binding (Nishimura et al., 2009). We therefore simultaneously mutagenized positions M158, F159 and A160 using a primer with degenerate NNK codons at all three positions. F159 was included in this mutagenesis because we have previously observed that multiple substitutions at F159 (A,C,I,L,M,T, or V) are permissive for mandipropamid responsiveness (S. Y. Park et al., n.d.), and sought to test whether residues other than leucine at position 159 might function better in the context of simultaneous changes to both A160 and M158. The mutagenic primer was used in QuickChange mutagenesis reactions using pBD-PYR1^!-MANDI template, and a library of ˜12,000 clones was generated. Plasmid DNA for the library was prepared from pooled E. coli transformants, and subsequently transformed into S. cerevisiae strain MAV99 harboring pACT-HAB1^!-2. ˜20,000 yeast transformants were generated, pooled, and plated onto SD(-Leu,-Trp) agar media supplemented with 0.1% fluorotic acid (to select against mutants that interact in a ligand-independent fashion). The surviving cells were collected and plated onto SD(Leu,-Trp,-Ura) plates supplemented with 50 nM mandipropamid. The colonies displaying the best uracil-independent growth were isolated and retested on different mandipropamid concentrations and then stained in β-galactosidase assays to rank their relative strength.
row,Molecule,mandipropamid concentration to which the interaction responds
1,B24,nM responses
2,B25,nM responses

# Same assay, conditions: β-galactosidase assays on different mandipropamid concentrations
row,Molecule,relative mandipropamid sensitivity among selected mutants
1,B24,slightly less sensitive than PYR1*^-MANDI
2,B25,slightly less sensitive than PYR1*^-MANDI

# From patent US10919943B2, “Mutant proteins enabling agrochemical control of plant gene expression” (The Regents of the University of California, priority 2016, dated 2021)
